These results are taken from patent US11015206B2, “Compositions and methods comprising sequences having hydroxyphenylpyruvate dioxygenase (HPPD) activity” (PIONEER HI-BRED INTERNATIONAL, INC., priority 2014, dated 2021).

Type in all cases: biochemical, Z. mays
The subject of data set [1] is 4-hydroxyphenylpyruvate dioxygenase (HPPD). The data set can be described thus: OFF rate ratio: release of inhibitor from pre-formed enzyme-inhibitor complex. The settings on record: Table 7; tembotrione; combinatorial variants. In short, it runs like this: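 HPPD (7.2 μM) pre-incubated 1 h at RT with inhibitor (8 μM), then diluted into 25 mM Hepes pH 7, 2 mM ascorbate, 10 μM FeSO4, 100 μM HPP, 50 nM HGD; A320 followed 12 min. Ratio = steady-state rate with inhibitor over initial rate of inhibitor-free enzyme.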

For data set [2] the test system is unchanged. The data set can be described thus: ON rate ratio: HPPD reaction rate with vs without inhibitor in the 70 to 90 second interval. The conditions noted are these: Table 7; tembotrione; combinatorial variants. The gist of the method:
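Time courses of HPPD reactions, 60 or 120 nM enzyme with 100 μM HPP substrate, run with and without 4 μM inhibitor (e.g. mesotrione, tembotrione). Value is the rate with inhibitor over rate without, taken over 70–90 s; higher ratio reflects slower kON.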

The test system is the same in data set [3]. In words: Insensitivity parameter (ON × OFF) and trait fitness (ON × OFF × kcat/KM or × kcat). Set-up: key to ON × OFF / Insensitivity, mesotrione, ON × OFF / Insensitivity, tembotrione, ON × OFF / Insensitivity, topramezone, ON × OFF / Insensitivity, sulcotrione, ON × OFF / Insensitivity, isoxaflutole (DKN), ON × OFF: insensitivity = ON rate ratio × OFF rate ratio (surrogate for KD). The gist of the method: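 Calculated, not measured directly: ON rate ratio × OFF rate ratio gives an insensitivity parameter serving as a KD surrogate.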

For data set [4] the test system is unchanged. The data set can be described thus: Estimate of kcat from initial rate at saturating hydroxyphenylpyruvate without inhibitor (ON rate ratio assay). The gist of the method: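 Reactions used 60 or 120 nM HPPD and saturating 100 μM hydroxyphenylpyruvate without inhibitor. kcat was estimated from the initial rate at the known enzyme concentration.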
[5] abbreviates: Table 7, tembotrione, combinatorial variants.
Where [6] appears, read: Table 7, combinatorial variants.

B1: P056028-C-04 (protein)
chain: MGPTPTATAAGAAVAAASAAEQAAFRLVGHRNFVRFNPRSDRFQTLAFHHVELWCADAASAAGRFSFALGVPLAARSDLSTGNSAHASLLLRSGSLSLLFTAPYAHDADAATAALPSFSAAAARRFAADHGLAVRAVALRVADAEDAFRASVAAGARPAFGPVDLGRGFRLAEVELYGDVVLRYVSYPDGGAGEPFLPGFEGVASSGAADYGLSRFDHIVGNVPELAPAAAYMAGFTGFHEFAEFTTEDVGTTESGLNSMALANNSENVLLPLNEPVLGTKRRSQIQTFLDHHGGPGVQHIALASDDVLRTLREMRARSAMGGFEFLPPPLSDYYDGVRRCAGDVLTEAQINECQELGVMVDRDDEGVLLQIFTKPVGDRPTFFLEIIQRIGCMEKDEKGQEYQKGGCGGFGKGNFSQLFKSIEDYEKSLEAKRAAAAATAQGS
modifications: Zea mays variant form created by artificial means.
For orientation: kcat means the maximal rate divided by the concentration of active sites. As for B1, the OFF rate ratio in data set [1] amounted to 0.322. For the same molecule, in data set [2], the ON rate ratio is listed as 0.727. Further, the “ON × OFF” value turned out to be 0.234 in data set [3] (Megatable 3, shuffled variants) and 0.234 in data set [3] (setting [5]). In addition, the “ON × OFF × kcat” value is on record as 5.32 in data set [3] (Megatable 3, shuffled variants) and 5.32 in data set [3] (setting [5]). Further, the kcat was 0.378 s⁻¹ in data set [4] (Megatable 3, shuffled variants) and 0.378 s⁻¹ in data set [4] (setting [6]).

B2: P056028-C-09 (protein)
chain: MGPTPTATAAGAAVAAASAAEQAAFRLVGHRNFVRFNPRSDRFQTLAFHHVELWCADAASAAGRFSFALGVPLAARSDLSTGNSAHASLLLRSGSLSLLFTAPYAHGADAATAALPSFSAAAARRFAADHGLAVRAVALRVADAEDAFRASVAAGARPAFGPVDLGRGFRLAEVELYGDVVLRYVSYPDGAAGEPFLPGFEGVASPGAADYGLNRFDHIVGNVPELAPAAAYMAGFTGFHEFAEFTTEDVGTTESGLNSMALANNSENVLLPLNEPVHGTKRRSQIQTFLDHHGGPGVQHIALASDDVLRTLREMRARSAMGGFEFLPPPLSDYYDGVRRCAGDVLTEAQINECQELGVMVDRDDEGVLLQIFTKPVGDRPTFFLEIIQRIGCMEKDEKGQEYQKGGCGGFGKGNFGQLFKSIEDYEKSLEAKQAAAAATAQGS
modifications: Zea mays variant form created by artificial means.
Consider B2, for which, in data set [1], the OFF rate ratio came out at 0.314. Besides, the ON rate ratio in data set [2] is given as 0.706. The “ON × OFF” value in data set [3] (Megatable 3, shuffled variants) is recorded as 0.222; in data set [3] (setting [5]), 0.222. In addition, the “ON × OFF × kcat” value is listed as 3.76 in data set [3] (Megatable 3, shuffled variants) and 3.76 in data set [3] (setting [5]). The kcat is 0.283 s⁻¹ in data set [4] (Megatable 3, shuffled variants) and 0.283 s⁻¹ in data set [4] (setting [6]).

B3: P056028-D-01 (protein)
chain: MGPTPTATAAGAAVAAASAAEQAAFRLVGHRNFVRFNPRSDRFQTLAFHHVELWCADAASAAGRFSFALGVPLAARSDLSTGNSAHASLLLRSGSLSLLFTAPYAHGADAATAALPSFSAATARRFAADHGLAVRAVALRVADAEDAFRASVAAGARPAFGPVDLGRGFRLAEVELYGDVVLRYVSYPDGAAGEPFLPGFEGVASQGAADYGLSRFDHIVGNVPELAPAAAYMAGFTGFHEFAEFTTEDVGTTESGLNSMALANNSENVLLPLNEPVHGTKRRSQIQTFLDHHGGPGVQHIALASDDVLRTLREMRARSAMGGFEFLPPPLSDYYDGVRRCAGDVLTEAQINECQKLGVMVDRDDEGVLLQIFTKPVGDRPTFFLEIIQRIGCMEKDEKGQEYQKGGCGGFGKGNFGQLFKSIEDYEKSLEAKQAAAAATAQGS
modifications: Zea mays variant form created by artificial means.
With B3, the OFF rate ratio in data set [1] is given as 0.348. Further, the ON rate ratio in data set [2] turned out to be 0.728. Moreover, the “ON × OFF” value is on record as 0.254 in data set [3] (Megatable 3, shuffled variants) and 0.254 in data set [3] (setting [5]). The “ON × OFF × kcat” value in data set [3] (Megatable 3, shuffled variants) is 5.39; in data set [3] (setting [5]) it was 5.39. Besides, the kcat is 0.355 s⁻¹ in data set [4] (Megatable 3, shuffled variants) and 0.355 s⁻¹ in data set [4] (setting [6]).

B4: P056028-C-06 (protein)
chain: MGPTPTATAAGAAVAAASAAEQAAFRLVGHRNFVRFNPRSDRFQTLAFHHVELWCADAASAAGRFSFALGVPLAARSDLSTGNSAHASLLLRSGSLSLLFTAPYAHGADAATAALPSFSAAAARRFAADHGLAVRAVALRVADAEDAFRASVAAGARPAFGPVDLGRGFRLAEVELYGDVVLRYVSYPDGGAGEPFLPGFEGVASSGAADYGLNRFDHIVGNVPELAPAAAYMAGFTGFHEFAEFTTEDVGTTESGLNSMALANNSENVLLPLNEPVHGTKRRSQIQTFLDHHGGPGVQHIALASDDVLRTLREMRARSAMGGFEFLPPPLSDYYDGVRKCAGDVLTEAQINECQRLGVMVDRDDEGVLLQIFTKPVGDRPTFFVEIIQRIGCMEKDEKGQEYQKGGCGGFGKGNFGQLFKSIEDYEKSLEAKQAAAAATAQGS
modifications: Zea mays variant form created by artificial means.
On to B4, for which the OFF rate ratio in data set [1] stood at 0.351. Also, the ON rate ratio in data set [2] is given as 0.742. Besides, the “ON × OFF” value in data set [3] (Megatable 3, shuffled variants) was determined as 0.261; in data set [3] (setting [5]) it was 0.261. In addition, the “ON × OFF × kcat” value in data set [3] (Megatable 3, shuffled variants) came to 2.77; in data set [3] (setting [5]), 2.77. For the same molecule, the kcat is 0.177 s⁻¹ in data set [4] (Megatable 3, shuffled variants) and 0.177 s⁻¹ in data set [4] (setting [6]).

B5: P056028-C-08 (protein)
chain: MGPTPTATAAGAAVAAASAAEQAAFRLVGHRNFVRFNPRSDRFQTLAFHHVELWCADAASAAGRFSFALGVPLAARSDLSTGNSAHASLLLRSGSLSLLFTAPYAHGADAATAALPSFSAAAARRFAADHGLAVRAVALRVADAEDAFRASVAAGARPAFGPVDLGRGFRLAEVELYGDVVMRYVSYPDGAAGEPFLPGFEGVASPGAADYGLSRFDHIVGNVPELAPAAAYMAGFTGFHEFAEFTTEDVGTTESGLNSMALANNSENVLLPLNEPVHGTKRRSQIQTFLDHHGGPGVQHIALASDDVLRTLREMRARSAMGGFEFLPPPLSDYYDGVRKCAGDVLTEAQINECQELGVMVDRDDEGVLLQIFTKPVGDRPTFFLEIIQRIGCMEKDEKGQEYQKGGCGGFGKGNFGQLFKSIEDYEKSLDAKQAAAAATAQGS
modifications: Zea mays variant form created by artificial means.
With B5, the OFF rate ratio in data set [1] is recorded as 0.381. Also, in data set [2], the ON rate ratio is given as 0.712. Also, the “ON × OFF” value came out at 0.271 in data set [3] (Megatable 3, shuffled variants) and 0.271 in data set [3] (setting [5]). In addition, the “ON × OFF × kcat” value in data set [3] (Megatable 3, shuffled variants) is on record as 3.65; in data set [3] (setting [5]) it was 3.65. Moreover, the catalytic constant (kcat) was 0.225 s⁻¹ in data set [4] (Megatable 3, shuffled variants) and 0.225 s⁻¹ in data set [4] (setting [6]).

B6: P056028-D-11 (protein)
chain: MGPTPTATAAGAAVAAASAAEQAAFRLVGHRNFVRFNPRSDRFQTLAFHHVELWCADAASAAGRFSFALGVPLAARSDLSTGNSAHASLLLRSGSLSLLFTAPYAHGADAATAALPSFSAAAARRFAADHGLAVRAVALRVTDAEDAFRASVAAGARPAFGPVDLGRGFRLAEVELYGDVVLRYVSYPDGGAGEPFLPGFEGVASPGAADYGLSRFDHIVGNVPELAPAAAYMAGFTGFHEFAEFTTEDVGTTESGLNSMALANNSENVLLPLNEPVHGTKRRSQIQTFLDHHGGPGVQHIALASDDVLRTLREMRARSAMGGFEFLPPPLSDYYDGVRKCAGDVLTEAQINECQELGVMVDRDDEGVLLQIFTKPVGDRPTFFLEIIQRIGCMEKDEKGQEYQKGGCGGFGKGNFGQLFKSIEDYEKSLEAKQAAAAATAQGS
modifications: Zea mays variant form created by artificial means.
Take B6: the OFF rate ratio in data set [1] came to 0.261. Further, in data set [2], the ON rate ratio worked out at 0.719. The “ON × OFF” value in data set [3] (Megatable 3, shuffled variants) came to 0.188; in data set [3] (setting [5]), 0.188. Further, the “ON × OFF × kcat” value in data set [3] (Megatable 3, shuffled variants) was found to be 3.21; in data set [3] (setting [5]) it was 3.21. Further, the catalytic constant (kcat) in data set [4] (Megatable 3, shuffled variants) was 0.285 s⁻¹; in data set [4] (setting [6]) it was 0.285 s⁻¹.

B7: P056028-D-10 (protein)
chain: MGPTPTATAAGAAVAAASAAEQAAFRLVGHRNFVRFNPRSDRFQTLAFHHVELWCADAASAAGRFSFALGVPLAARSDLSTGNSAHASLLLRSGSLSLLFTAPYAHGADAATAALPSFSAAAARRFAADHGLAVRAVALRVADAEDAFRASVAAGARPAFGPVDLGRGFRLAEVELYGDVVLRYVSYPDGAAGEPFLPGFEGVASQGAADYGLSRFDHIVGNVPELAPAAAYMAGFTGFHEFAEFTTEDVGTTESGLNSMALANDSENVLLPLNEPVHGTKRRSQIQTFLDHHGGPGVQHIALASDDVLRTLREMRARSAMGGFEFLPPPLSDYYDGVRRCAGDVLTEAQINECQELGVMVDRDDEGVLLQIFTKPVGDRPTFFLEIIQRIGCMEKDEKGQEYQKGGCGGFGKGNFGQLFKSIEDYEKSLEAKQAAAAATAQGS
modifications: Zea mays variant form created by artificial means.
Take B7: the OFF rate ratio in data set [1] is reported as 0.253. Moreover, the ON rate ratio in data set [2] worked out at 0.670. Also, the “ON × OFF” value amounted to 0.170 in data set [3] (Megatable 3, shuffled variants) and 0.170 in data set [3] (setting [5]). For the same molecule, the “ON × OFF × kcat” value came out at 3.07 in data set [3] (Megatable 3, shuffled variants) and 3.07 in data set [3] (setting [5]). The kcat in data set [4] (Megatable 3, shuffled variants) was 0.302 s⁻¹; in data set [4] (setting [6]) it was 0.302 s⁻¹.
